Source: US20230406885A1, “CYCLIC PEPTIDES FOR TRAPPING INTERLEUKIN-1 BETA” (MERCK SHARP & DOHME LLC, priority 2022, published 2023)
*1 amine or outer side, *2 acyl side, *3 side chain or, on linkers, in order; H or OH if unused. [ ]: non-standard residue; d: D form. TyrEtNAc = L-tyrosine O-ethyl acetamide, (S)-3-(4-(2-acetamidoethoxy)phenyl)-2-aminopropanoic acid, CC(=O)NCCOc1ccc(C[C@H](N[*:1])C(=O)[*:2])cc1; AbuMph = (S)-2-amino-4-morpholinobutanoic acid, O=C([C@H](CCN1CCOCC1)N[*:1])[*:2]; hSOMe = (S)-2-amino-4-methoxybutanoic acid, COCC[C@H](N[*:1])C(=O)[*:2]; Trp(4-Cl)(βS-Me) = C[C@@H](c1c[nH]c2cccc(Cl)c12)[C@H](N)C(=O)O; Pro(trans-4-NH2) = O=C([C@@H]1C[C@@H](N[*:3])CN1[*:1])[*:2]; Bip(4'-COOH) = N[C@@H](Cc1ccc(-c2ccc(C(=O)O)cc2)cc1)C(=O)O; Phe(4-COOH) = N[C@@H](Cc1ccc(C(=O)O)cc1)C(=O)O; hTyr = N[C@@H](CCc1ccc(O)cc1)C(=O)O; hPhe = N[C@@H](CCc1ccccc1)C(=O)O; Dap(Me2) = CN(C)C[C@H](N)C(=O)O; dDab = NCC[C@@H](N)C(=O)O; dNMeA = CN[C@H](C)C(=O)O; Dab = NCC[C@H](N)C(=O)O; Dap = NC[C@H](N)C(=O)O

Each binder was assayed against Recombinant human IL-1β (BioLegend 579404) (human, UniProt P01584 117-269) (assay: cell-based or functional assay).

MRC5 IC50 [nM] | Binder
0.0926 | cyclo([TyrEtNAc]W[Phe(4-COOH)]G[Pro(trans-4-NH2)][Trp(4-Cl)(βS-Me)]D[dNMeA]G[Bip(4'-COOH)]W[hSOMe][dA][hTyr]) (SMILES COCC[C@@H]1NC(=O)[C@H](Cc2c[nH]c3ccccc23)NC(=O)[C@H](Cc2ccc(-c3ccc(C(=O)O)cc3)cc2)NC(=O)CNC(=O)[C@@H](C)N(C)C(=O)[C@H](CC(=O)O)NC(=O)[C@H]([C@@H](C)c2c[nH]c3cccc(Cl)c23)NC(=O)[C@@H]2C[C@@H](N)CN2C(=O)CNC(=O)[C@H](Cc2ccc(C(=O)O)cc2)NC(=O)[C@H](Cc2c[nH]c3ccccc23)NC(=O)[C@H](Cc2ccc(OCCNC(C)=O)cc2)NC(=O)[C@H](CCc2ccc(O)cc2)NC(=O)[C@@H](C)NC1=O) [SEQ ID NO: 147 (Example No. 147)]
0.177 | cyclo([TyrEtNAc]W[Phe(4-COOH)]G[Pro(trans-4-NH2)][Trp(4-Cl)(βS-Me)]D[dNMeA]G[Bip(4'-COOH)]W[AbuMph][dA][hTyr]) (SMILES CC(=O)NCCOc1ccc(C[C@@H]2NC(=O)[C@H](CCc3ccc(O)cc3)NC(=O)[C@@H](C)NC(=O)[C@H](CCN3CCOCC3)NC(=O)[C@H](Cc3c[nH]c4ccccc34)NC(=O)[C@H](Cc3ccc(-c4ccc(C(=O)O)cc4)cc3)NC(=O)CNC(=O)[C@@H](C)N(C)C(=O)[C@H](CC(=O)O)NC(=O)[C@H]([C@@H](C)c3c[nH]c4cccc(Cl)c34)NC(=O)[C@@H]3C[C@@H](N)CN3C(=O)CNC(=O)[C@H](Cc3ccc(C(=O)O)cc3)NC(=O)[C@H](Cc3c[nH]c4ccccc34)NC2=O)cc1) [SEQ ID NO: 141 (Example No. 141)]
0.0748 | cyclo([TyrEtNAc]W[Phe(4-COOH)]G[Pro(trans-4-NH2)][Trp(4-Cl)(βS-Me)]D[dNMeA]G[Bip(4'-COOH)]W[Dap][dA][hTyr]) (SMILES CC(=O)NCCOc1ccc(C[C@@H]2NC(=O)[C@H](CCc3ccc(O)cc3)NC(=O)[C@@H](C)NC(=O)[C@H](CN)NC(=O)[C@H](Cc3c[nH]c4ccccc34)NC(=O)[C@H](Cc3ccc(-c4ccc(C(=O)O)cc4)cc3)NC(=O)CNC(=O)[C@@H](C)N(C)C(=O)[C@H](CC(=O)O)NC(=O)[C@H]([C@@H](C)c3c[nH]c4cccc(Cl)c34)NC(=O)[C@@H]3C[C@@H](N)CN3C(=O)CNC(=O)[C@H](Cc3ccc(C(=O)O)cc3)NC(=O)[C@H](Cc3c[nH]c4ccccc34)NC2=O)cc1) [SEQ ID NO: 145 (Example No. 145)]
0.159 | cyclo([TyrEtNAc]W[Phe(4-COOH)]G[Pro(trans-4-NH2)][Trp(4-Cl)(βS-Me)]D[dNMeA]G[Bip(4'-COOH)]W[Dab][dA][hPhe]) (SMILES CC(=O)NCCOc1ccc(C[C@@H]2NC(=O)[C@H](CCc3ccccc3)NC(=O)[C@@H](C)NC(=O)[C@H](CCN)NC(=O)[C@H](Cc3c[nH]c4ccccc34)NC(=O)[C@H](Cc3ccc(-c4ccc(C(=O)O)cc4)cc3)NC(=O)CNC(=O)[C@@H](C)N(C)C(=O)[C@H](CC(=O)O)NC(=O)[C@H]([C@@H](C)c3c[nH]c4cccc(Cl)c34)NC(=O)[C@@H]3C[C@@H](N)CN3C(=O)CNC(=O)[C@H](Cc3ccc(C(=O)O)cc3)NC(=O)[C@H](Cc3c[nH]c4ccccc34)NC2=O)cc1) [SEQ ID NO: 142 (Example No. 142)]
0.81 | cyclo([TyrEtNAc]W[Phe(4-COOH)]G[Pro(trans-4-NH2)][Trp(4-Cl)(βS-Me)]D[dNMeA]G[Bip(4'-COOH)]WL[dDab][hTyr]) (SMILES CC(=O)NCCOc1ccc(C[C@@H]2NC(=O)[C@H](CCc3ccc(O)cc3)NC(=O)[C@@H](CCN)NC(=O)[C@H](CC(C)C)NC(=O)[C@H](Cc3c[nH]c4ccccc34)NC(=O)[C@H](Cc3ccc(-c4ccc(C(=O)O)cc4)cc3)NC(=O)CNC(=O)[C@@H](C)N(C)C(=O)[C@H](CC(=O)O)NC(=O)[C@H]([C@@H](C)c3c[nH]c4cccc(Cl)c34)NC(=O)[C@@H]3C[C@@H](N)CN3C(=O)CNC(=O)[C@H](Cc3ccc(C(=O)O)cc3)NC(=O)[C@H](Cc3c[nH]c4ccccc34)NC2=O)cc1) [SEQ ID NO: 149 (Example No. 149)]

Continued, binder first:

Binder | MRC5 IC50 [nM]
cyclo([TyrEtNAc]W[Phe(4-COOH)]G[Pro(trans-4-NH2)][Trp(4-Cl)(βS-Me)]D[dNMeA]G[Bip(4'-COOH)]W[Dap][dA][hPhe]) (SMILES CC(=O)NCCOc1ccc(C[C@@H]2NC(=O)[C@H](CCc3ccccc3)NC(=O)[C@@H](C)NC(=O)[C@H](CN)NC(=O)[C@H](Cc3c[nH]c4ccccc34)NC(=O)[C@H](Cc3ccc(-c4ccc(C(=O)O)cc4)cc3)NC(=O)CNC(=O)[C@@H](C)N(C)C(=O)[C@H](CC(=O)O)NC(=O)[C@H]([C@@H](C)c3c[nH]c4cccc(Cl)c34)NC(=O)[C@@H]3C[C@@H](N)CN3C(=O)CNC(=O)[C@H](Cc3ccc(C(=O)O)cc3)NC(=O)[C@H](Cc3c[nH]c4ccccc34)NC2=O)cc1) [SEQ ID NO: 144 (Example No. 144)] | 0.0749
cyclo([TyrEtNAc]W[Phe(4-COOH)]G[Pro(trans-4-NH2)][Trp(4-Cl)(βS-Me)]D[dNMeA]G[Bip(4'-COOH)]WL[dA][hTyr]) (SMILES CC(=O)NCCOc1ccc(C[C@@H]2NC(=O)[C@H](CCc3ccc(O)cc3)NC(=O)[C@@H](C)NC(=O)[C@H](CC(C)C)NC(=O)[C@H](Cc3c[nH]c4ccccc34)NC(=O)[C@H](Cc3ccc(-c4ccc(C(=O)O)cc4)cc3)NC(=O)CNC(=O)[C@@H](C)N(C)C(=O)[C@H](CC(=O)O)NC(=O)[C@H]([C@@H](C)c3c[nH]c4cccc(Cl)c34)NC(=O)[C@@H]3C[C@@H](N)CN3C(=O)CNC(=O)[C@H](Cc3ccc(C(=O)O)cc3)NC(=O)[C@H](Cc3c[nH]c4ccccc34)NC2=O)cc1) [SEQ ID NO: 148 (Example No. 148)] | 0.0483
cyclo([TyrEtNAc]W[Phe(4-COOH)]G[Pro(trans-4-NH2)][Trp(4-Cl)(βS-Me)]D[dNMeA]G[Bip(4'-COOH)]W[Dap(Me2)][dA][hTyr]) (SMILES CC(=O)NCCOc1ccc(C[C@@H]2NC(=O)[C@H](CCc3ccc(O)cc3)NC(=O)[C@@H](C)NC(=O)[C@H](CN(C)C)NC(=O)[C@H](Cc3c[nH]c4ccccc34)NC(=O)[C@H](Cc3ccc(-c4ccc(C(=O)O)cc4)cc3)NC(=O)CNC(=O)[C@@H](C)N(C)C(=O)[C@H](CC(=O)O)NC(=O)[C@H]([C@@H](C)c3c[nH]c4cccc(Cl)c34)NC(=O)[C@@H]3C[C@@H](N)CN3C(=O)CNC(=O)[C@H](Cc3ccc(C(=O)O)cc3)NC(=O)[C@H](Cc3c[nH]c4ccccc34)NC2=O)cc1) [SEQ ID NO: 146 (Example No. 146)] | 0.114
cyclo([TyrEtNAc]W[Phe(4-COOH)]G[Pro(trans-4-NH2)][Trp(4-Cl)(βS-Me)]D[dNMeA]G[Bip(4'-COOH)]W[Dab][dA][hTyr]) (SMILES CC(=O)NCCOc1ccc(C[C@@H]2NC(=O)[C@H](CCc3ccc(O)cc3)NC(=O)[C@@H](C)NC(=O)[C@H](CCN)NC(=O)[C@H](Cc3c[nH]c4ccccc34)NC(=O)[C@H](Cc3ccc(-c4ccc(C(=O)O)cc4)cc3)NC(=O)CNC(=O)[C@@H](C)N(C)C(=O)[C@H](CC(=O)O)NC(=O)[C@H]([C@@H](C)c3c[nH]c4cccc(Cl)c34)NC(=O)[C@@H]3C[C@@H](N)CN3C(=O)CNC(=O)[C@H](Cc3ccc(C(=O)O)cc3)NC(=O)[C@H](Cc3c[nH]c4ccccc34)NC2=O)cc1) [SEQ ID NO: 143 (Example No. 143)] | 0.23
